Test results taken from article PMC11779849.

Key:
[1] = target: full length WT-Pcad with an mCherry tag on the C-terminus (human) (UniProt P22223); experiment: co-IP; lysates of A431 Pcad-mCherry cells grown 48 h without or with CQY684 Fab (200 nM); anti-mCherry rabbit mAb on magnetic protein G beads pulls down Pcad as bait; p120 detected by Western blot, p120/Pcad ratio normalised to WT -CQY; M2 lysis buffer pH 7.5, 50 mM Tris-HCl, 150 mM NaCl, 1% SDS, 1% Triton-X 100
[2] = target: full length W2A-Pcad with an mCherry tag on the C-terminus (human); experiment: as above
full length W2A-Pcad with an mCherry tag on the C-terminus (human), sequence (P22223 whole entry W109A): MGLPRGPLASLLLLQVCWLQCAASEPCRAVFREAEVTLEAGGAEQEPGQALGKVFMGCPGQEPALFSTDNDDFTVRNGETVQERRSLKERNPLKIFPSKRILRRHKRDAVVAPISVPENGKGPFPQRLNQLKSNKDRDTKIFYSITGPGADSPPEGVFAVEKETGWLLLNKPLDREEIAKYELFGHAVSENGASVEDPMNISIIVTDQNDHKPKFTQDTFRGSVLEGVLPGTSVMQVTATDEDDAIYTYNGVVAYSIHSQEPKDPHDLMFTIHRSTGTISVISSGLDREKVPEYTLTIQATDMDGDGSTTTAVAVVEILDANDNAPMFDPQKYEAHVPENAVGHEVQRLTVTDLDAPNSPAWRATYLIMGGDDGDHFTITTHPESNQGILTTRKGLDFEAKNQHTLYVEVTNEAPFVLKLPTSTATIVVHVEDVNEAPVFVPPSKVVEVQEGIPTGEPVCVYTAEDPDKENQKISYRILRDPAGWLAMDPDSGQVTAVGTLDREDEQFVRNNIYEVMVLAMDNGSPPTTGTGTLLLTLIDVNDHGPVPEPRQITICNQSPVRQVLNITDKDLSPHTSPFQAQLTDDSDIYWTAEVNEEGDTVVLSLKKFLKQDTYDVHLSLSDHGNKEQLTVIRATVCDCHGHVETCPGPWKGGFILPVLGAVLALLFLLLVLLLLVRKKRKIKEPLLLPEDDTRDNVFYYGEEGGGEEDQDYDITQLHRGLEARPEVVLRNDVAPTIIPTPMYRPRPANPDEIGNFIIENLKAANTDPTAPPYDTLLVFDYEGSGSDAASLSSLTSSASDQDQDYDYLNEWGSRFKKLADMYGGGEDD

full length WT-Pcad with an mCherry tag on the C-terminus (human), sequence (P22223 25-829): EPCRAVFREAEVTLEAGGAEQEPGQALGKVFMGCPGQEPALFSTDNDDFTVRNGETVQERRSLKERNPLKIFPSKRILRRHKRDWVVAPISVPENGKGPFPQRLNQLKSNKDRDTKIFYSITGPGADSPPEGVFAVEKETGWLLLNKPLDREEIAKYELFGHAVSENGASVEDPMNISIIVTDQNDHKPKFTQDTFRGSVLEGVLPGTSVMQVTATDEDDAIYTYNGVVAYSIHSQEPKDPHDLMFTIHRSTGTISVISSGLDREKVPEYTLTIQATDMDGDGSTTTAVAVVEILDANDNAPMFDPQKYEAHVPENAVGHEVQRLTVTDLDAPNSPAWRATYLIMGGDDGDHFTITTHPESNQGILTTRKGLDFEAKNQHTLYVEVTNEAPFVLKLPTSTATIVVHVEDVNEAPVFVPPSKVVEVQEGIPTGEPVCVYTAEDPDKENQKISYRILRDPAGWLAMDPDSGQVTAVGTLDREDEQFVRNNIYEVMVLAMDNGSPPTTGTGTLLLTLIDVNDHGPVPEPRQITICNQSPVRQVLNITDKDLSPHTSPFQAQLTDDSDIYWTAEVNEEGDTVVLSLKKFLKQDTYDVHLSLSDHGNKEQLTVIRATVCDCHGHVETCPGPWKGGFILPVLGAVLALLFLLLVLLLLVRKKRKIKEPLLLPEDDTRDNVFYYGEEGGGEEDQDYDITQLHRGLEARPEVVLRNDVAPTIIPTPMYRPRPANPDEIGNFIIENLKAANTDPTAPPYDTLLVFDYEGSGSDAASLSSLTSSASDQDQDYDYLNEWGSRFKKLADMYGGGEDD

p120 associated with Pcad in cells grown with CQY684 Fab, percent of the WT -CQY condition [1]: 60%
p120 associated with Pcad, percent of the WT -CQY condition [2]: 30%
B1: p120-catenin (natural protein)
chain: MDDSEVESTASILASVKEQEAQFEKLTRALEEERRHVSAQLERVRVSPQDANPLMANGTLTRRHQNGRFVGDADLERQKFSDLKLNGPQDHSHLLYSTIPRMQEPGQIVETYTEEDPEGAMSVVSVETSDDGTTRRTETTVKKVVKTVTTRTVQPVAMGPDGLPVDASSVSNNYIQTLGRDFRKNGNGGPGPYVGQAGTATLPRNFHYPPDGYSRHYEDGYPGGSDNYGSLSRVTRIEERYRPSMEGYRAPSRQDVYGPQPQVRVGGSSVDLHRFHPEPYGLEDDQRSMGYDDLDYGMMSDYGTARRTGTPSDPRRRLRSYEDMIGEEVPSDQYYWAPLAQHERGSLASLDSLRKGGPPPPNWRQPELPEVIAMLGFRLDAVKSNAAAYLQHLCYRNDKVKTDVRKLKGIPVLVGLLDHPKKEVHLGACGALKNISFGRDQDNKIAIKNCDGVPALVRLLRKARDMDLTEVITGTLWNLSSHDSIKMEIVDHALHALTDEVIIPHSGWEREPNEDCKPRHIEWESVLTNTAGCLRNVSSERSEARRKLRECDGLVDALIFIVQAEIGQKDSDSKLVENCVCLLRNLSYQVHREIPQAERYQEAAPNVANNTGPHAASCFGAKKGKDEWFSRGKKPIEDPANDTVDFPKRTSPARGYELLFQPEVVRIYISLLKESKTPAILEASAGAIQNLCAGRWTYGRYIRSALRQEKALSAIADLLTNEHERVVKAASGALRNLAVDARNKELIGKHAIPNLVKNLPGGQQNSSWNFSEDTVISILNTINEVIAENLEAAKKLRETQGIEKLVLINKSGNRSEKEVRAAALVLQTIWGYKELRKPLEKEGWKKSDFQVNLNNASRSQSSHSYDDSTLPLIDRNQKSDKKPDREEIQMSNMGSNTKSLDNNYSTPNERGDHNRTLDRSGDLGDMEPLKGTTPLMQDEGQESLEEELDVLVLDDEGGQVSYPSMQKI
